# Source: article PMC10663500
# Target: toripalimab Fab, wild type
# Assay: SPR; Carterra LSA; Fab from the ammonium sulfate precipitate of the culture supernatant immobilised on a NiHC200M chip; hPD-1 (1-1024 nM) or mPD-1-Fc (4-1024 nM) as analyte, fourfold dilution series, no regeneration; HBS-EP pH 7.4, 25 °C; medians over the spots of a construct, KD = koff/kon
# Chain of toripalimab Fab, wild type (heavy, as listed by the source, chain 1 of 2): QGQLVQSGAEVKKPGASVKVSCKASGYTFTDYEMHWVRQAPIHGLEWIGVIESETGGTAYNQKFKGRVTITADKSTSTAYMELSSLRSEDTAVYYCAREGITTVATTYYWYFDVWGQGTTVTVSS
# Chain of toripalimab Fab, wild type (light, as listed by the source, chain 2 of 2): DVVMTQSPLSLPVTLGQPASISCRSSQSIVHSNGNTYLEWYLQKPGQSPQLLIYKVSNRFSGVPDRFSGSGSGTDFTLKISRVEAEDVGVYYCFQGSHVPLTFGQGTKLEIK
# Chain of mouse programmed cell death protein 1 Fc fusion protein (mPD-1-Fc), mPD-1 C60S (aa 25-167) (Q02242 25-167, stated change not applied): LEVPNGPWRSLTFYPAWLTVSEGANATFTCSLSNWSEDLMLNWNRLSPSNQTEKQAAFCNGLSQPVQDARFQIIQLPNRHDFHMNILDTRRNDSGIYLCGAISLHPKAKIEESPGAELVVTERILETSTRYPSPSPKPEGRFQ
substance,measurement,value
"mouse programmed cell death protein 1 Fc fusion protein (mPD-1-Fc), mPD-1 C60S (aa 25-167) (from UniProt Q02242 25-167)",Kd,136 nM
same,koff,0.00548 s⁻¹
same,kon,40300 M⁻¹ s⁻¹
